For assay [1], the target named is SmT2 (CT), T4 foldon-trimerized SARS-CoV-2 spike ectodomain with complex-type N-glycans (SARS-CoV-2 | bacteriophage T4) (UniProt P0DTC2). Nature of the assay: SEC-MALS. In general terms: SEC sorts molecules by how far they enter the pores of the column.
The target of assay [2] is SmT1 (CT), resistin-trimerized SARS-CoV-2 spike ectodomain with complex-type N-glycans (SARS-CoV-2 | human) (UniProt P0DTC2). Put plainly: SEC.
The target of assay [3] is SmT2 (HM), T4 foldon-trimerized SARS-CoV-2 spike ectodomain with high-mannose N-glycans (SARS-CoV-2 | bacteriophage T4) (UniProt P0DTC2). Nature of the assay: SEC-MALS.

In general, stoichiometry N refers to the number of molecules, sites or subunits per partner or assembly. In turn, “SmT2 (CT), T4 foldon-trimerized SARS-CoV-2 spike ectodomain with complex-type N-glycans (from UniProt P0DTC2 14-1208)” returned a stoichiometry N in assay [1] of 3.

Turning to “SmT1 (CT), resistin-trimerized SARS-CoV-2 spike ectodomain with complex-type N-glycans (from UniProt P0DTC2;Q9HD89-1)”, the stoichiometry N in assay [2] was found to be 3. In turn, “SmT2 (HM), T4 foldon-trimerized SARS-CoV-2 spike ectodomain with high-mannose N-glycans (from UniProt P0DTC2 14-1208)” registered a stoichiometry N in assay [3] of 3.

Values taken from publication PMC11992040.
